Consider twelve sequences from the DeepSol protein solubility set.

This data set can be described thus: soluble on expression in E. coli; label from the status in PepcDB or PDB records.
With “MSLTEAPRVRLVGAEIFERPVEFRFPFRFGAARVTNAPQAFVRVRVEDASGRSTIGRSAEMMMPKWFDKNPSLSPEDNVGQLRASLRLAAEGLKSLQAETAFGLHVAAETEHHQAAATHGLPPLVASYGLALLDRAILDAVCRMMGACAAEAVRNNLLGVSGVAAPDLAGFDLTRFLSRLNVSSRLAVRHTIGLADVLTVADLGAMQRPADGLPQTLEDVIAAYGHRYFKIKVSGRPAEDIERLVAIAAILDDRVGDYRATLDGNEQFENIDLVCDLLDRIEEEPRLKRLRASMLFFEQPIARAEALSKPVVAAAQRMPLEIDESDGDMGAFLRARELGYAGISSKSCKGFYRALINRARVEKWNAEAGSSHYFMSAEDLTTQAGLALQQDLVLASLVGAGHVERNGHHYVDGMAGAPEGEQLAYLSHHGDLYEGAAGQTRLAIQAGEITFATALRSVGLGSSVDPDWAAMRPVSEGHHHHHH”, the “soluble on expression in E. coli” value was “not soluble”.

On to “MSLTEILIVEDDDIIATLIERFLLQREYVVCAKVATGEDALYKAAEHLPDLVLMDINLAGKIDGITATKFITAIFHIPVIFLSGQDDETTLERATMAEPASFIIKPFNAKDLYSNIEIALHNDRILKRSKDYKGGKIRRIARAALSELDAYFILDKRGRIVFINPYGEHLLNVHRNDIILKPIGKYLTFYDTRQNTVFTDTFQDVIRESLVLGVRQHIAVKMSDNSFRHVVIQSTSIRDSENETIGMIVRMHMKTKSEEGHHHHHH”, for which the “soluble on expression in E. coli” value is reported as “soluble”.

For “MSLTEISRFDAYPPTLTVNPIVPADAPATEHLVWTIAQAAEERKAGDLVILKVTDVSYLADYFVICTGFSRTQVRAIADNIEKQVELVHGQLPTHTEGNSESIWVLQDFGDVLVHTFMPEEREFYKLEAFWGHAQEQTLADIATAIGVAYNAPTSPEGHHHHHH”, the “soluble on expression in E. coli” value is “soluble”.

For the sequence “MSLTIAHDIDLSAVLAERLTTTHPDVLRELLAAFIHALMGAEADAVCGAGYGQRSSERTNSRNGYRHREFDTRAGTLDLAIPKLRQGSYFPDWLLERRKRAERALTTVVATCYLLGVSTRRMDKLVETLGITSLSKSQVSVMAKELDAAVEAFRTRPLDAGPYTFMAADALVLKVREAGRVVNVHALIATGVNAEGYREILGIDVTTTEDGAGWLTFLRSLTARGLSGVRLVTSDAHAGLVAAIGATLPGASWQRCRTHYATNLMAITPKSSWPWVRTLLHSVFDQPDAGSVAAQYDRIIDALADKLPKVADHLEDTRADLLAFTAFPKQIWRQIWSNNPQVICSPRDGVFDVRHEVLRSQVLRAGHAYLQLSRRQEPAEGRCRLHELSRRSRCVSRGEGHHHHHH”, the “soluble on expression in E. coli” value is listed as “not soluble”.

With “MSLTKKELRKEQTNRFIESTIITTDLLLSSYLYDSTKMEEFLSFIANLDNKYSFINMYLVRTQFPGASIVKSYSSWKKENIQVRKNEKGISIFRPKVIEYVVYNNTKVTKDKWTNEIKELVKNNELEVYTYTKGFTLAKVFDISQTTLPKAQYPKQYFSYFIKEDNENINPNTKLLSLLCNFIAKHNIGITYATMGLSTSEQRFYDKNSHGIKHWIRLNDKNSITQNIYSLVKEYAHTLLGHDISAINNIENRYQAQLVAYAICKSFRLKGIELSSFDAFRSWVNTSTKEMRKKWINSVIFASKQFANDFNYFLDEIEINVDKANLRETASINELMGREGHHHHHH”, the “soluble on expression in E. coli” value is listed as “soluble”.

Take “MSLTKLYYEDQYIKEFKGEIIEVKEIDGKFHVLLDQTAFFPGGGGQMGDLGLIDGIKVLDVYEEEGKVYHVLEKEPKKLKNLQCELDWERRFDGMQQHLGQHLLSGCFYDLFGANTCGFHLGKEISTVDIVGFLDEKTIREAEKEANRLIFENLEVKSYAPSKKELKKVKTRRALPKTDEEIRIVEIVGLDLNACCGVHPRNTRDLQVIKIRRWEKHKNATRIEYVAGNRAVSEGHHHHHH”: the “soluble on expression in E. coli” value is listed as “soluble”.

Consider “MSLTKPTIALTELVEKGADADLLKQMIQFVAQRMMEFDVEGLCGAGFDVKSPDRTNSRNGYRDRLWQTRAGDVDLKIPKLRQGNYFPGFLEPRRTAEKAMAAVIQEAYIQGVSTRSVDELVKAMGMTGISKSQVSRLAGEIDERVHAFLDRPLEGDWPYLWIDATYVKVREAGRIVSVVVIIAVAVNTDGGREVLGMRVGPSEAEPFWTDFLRSLMRRGLRGVKLVISDAHEGLKAAASKVFNATWQRCRVHFMRNAMAHVGKGQRTMVAALLRTVFAQDSRAECHQQWRLVADQLREKYPKIATLMDGCEDEVLAHMAFPKAHRQQLHSTNPLERLNAEIKRRTDVVGIFPNDPAITRLVGAMLLEQNDEWCLQRRYMQLEAFEAVSDNPQAKLSAVINEGHHHHHH”, for which the “soluble on expression in E. coli” value was “soluble”.

As for “MSLTKSGLAHAAGVSTSVIDGLVKQGVFETVFLPAPPVVAEPDPDYVEPRLEGPQKQAASEIIEDVRKGGFHVSLIDGVTGSGKTEVYFEAVAETLRQGKQVLILLPEIALTAAFLERFQDRFGAKPAEWHSDLSPRMREKVWRQAVTGEIKVVAGARSALFLPFDNLGLIIVDEEHDPAYKQEDRVFYNARDMAVVRARIAEFPVVLVSATPSVESQVNGSSGRYNTIHLHTRFGDAAMPDLHLVDMRRHPPERGGFLSPVLLRGIGKTIEKGEQSLLFLNRRGYAPLTLCRVCGHRFQCPQCSSWLVEHRFRNQLQCHQCGHNEPTPDHCPECGTFDHLVACGPGVERIAEEVEKHFPEARTIVLSSDLMGVKRLRLELEAIVKGEADIVIGTQLVAKGHNFPLMTLVGIVDADLGLANGDPRAAERTFQLLSQVTGRAGRTGLKSHGLLQTYQPQHPVMQAIVSGDASAFYEREIVEREKAVLPPFGRLASIIVSADTRAEAETHARGLRAAAPQVTGIMLLGPAEAPLALIRGRHRFRLLVHGRRNSDMQSFLRTLLASGPKERGSVHVQLDIDPQSFLEGHHHHHH”, the “soluble on expression in E. coli” value was “not soluble”.

For the sequence “MSLTLPDFRLIRLLPLASLVLTACTLPGHKGPGKSPDSPQWRQHQQEVRHLNQYQTRGAFAYISDDQKVYARFFWQQTGQDRYRLLLTNPLGSTELELNAQPGNVQLVDNKGQRYTADDAEEMIGKLTGMPIPLNSLRQWILGLPGDATDYKLDDQYRLSEVNYRQDGKNWKVVYGGYDSKTQPAMPANMELSDGSQRIKLKMDNWIVKEGGSHHHHHH”, the “soluble on expression in E. coli” value is “soluble”.

For “MSLTLTLKETLLASPGVLFLDDITIEKVESEKNLMILLPGLEYLVTRDLLRTKFPEYDFTGPENVRITVEGYSSLKNAVFEEIGKKAEAKDFEAFVVKTFGTLPEKFEPQTIRVTKISKNLFSVFLRFPDTYVTLNMLLRKERNVVVLKRNINVGDVIKEEDVRLEKRNVFEIYGEPFFDVSEVVGKISRRYLKEGTVLTADMVKDPPDVVKGQVVPAYVDMGSIKVTTFVEVLENGYLGETVRAMNVESRKYVFGRVERGPVLRILEVVEGHHHHHH”, the “soluble on expression in E. coli” value is on record as “soluble”.

Regarding “MSLTNHEQVLTDYLAAFIEELVQAGVKEAIISPGSRSTPLALMMAEHPILKIYVDVDERSAGFFALGLAKASKRPVVLLCTSGTAAANYFPAVAEANLSQIPLIVLTADRPHELRNVGAPQAMDQLHLYGSHVKDFTDMALPENSEEMLRYAKWHGSRAVDIAMKTPRGPVHLNFPLREPLVPILEPSPFTATGKKHHHVHIYYTHEVLDDSSIQKMVTECTGKKGVFVVGPIDKKELEQPMVDLAKKLGWPILADPLSGLRSYGALDEVVIDQYDAFLKEAEIIDKLTPEVVIRFGSMPVSKPLKNWLEQLSDIRFYVVDPGAAWKDPIKAVTDMIHCDERFLLDIMQQNMPDDAKDAAWLNGWTSYNKVAREIVLAEMANTTILEEGKIVAELRRLLPDKAGLFIGNSMPIRDVDTYFSQIDKKIKMLANRGANGIDGVVSSALGASVVFQPMFLLIGDLSFYHDMNGLLMAKKYKMNLTIVIVNNDGGGIFSFLPQANEPKYFESLFGTSTELDFRFAAAFYDADYHEAKSVDELEEAIDKASYHKGLDIIEVKTNRHENKANHQALWVKIADALKALDEGHHHHHH”, the “soluble on expression in E. coli” value was “soluble”.

Consider “MSLTNKHPSLFSPFMLTEKIKLRNRIVMAPMTTWSANPDGTISEQELEFYKRRSQNVGLVITGCTYVTPSGIGFTHEFAAYDDRFINSLEKLAAAAKSGGAPAILQIFHAGNKAIPELVPNNDVISASASSVKSGDFMKRVVQSREMTENEIQETIRAFGDVTKRAIKAGFDGIELHGAHGFLLQNFFSPLFNQRNDRWGGDLEGRMRFPLAVLQEVKNVVYEYATKPFAIGYRISPEESATGGLRIEDTYKLLDRLISSGISYIHTSLVSINDSYPVESPNGPRTIELILNHIAGRVPVIAAGKIRTPSQAQEAISTGLPLVAIGKGLVINPEWVTLAESGRGHEIQTTLNPQLVPELTIPDKLWDQIQASKGEGHHHHHH”, for which the “soluble on expression in E. coli” value is reported as “soluble”.
